Source: patent publication US20230192896A1 (published 2023)
Residue numbers refer to the chain shown, from its start.

T1: FX zymogen (UniProt P00742 41-179; P00742 183-488)
T1 chain 1: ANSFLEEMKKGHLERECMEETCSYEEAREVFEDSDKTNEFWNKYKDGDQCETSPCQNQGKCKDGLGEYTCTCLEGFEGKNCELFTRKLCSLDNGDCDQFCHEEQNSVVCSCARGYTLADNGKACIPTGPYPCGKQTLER
T1 chain 2: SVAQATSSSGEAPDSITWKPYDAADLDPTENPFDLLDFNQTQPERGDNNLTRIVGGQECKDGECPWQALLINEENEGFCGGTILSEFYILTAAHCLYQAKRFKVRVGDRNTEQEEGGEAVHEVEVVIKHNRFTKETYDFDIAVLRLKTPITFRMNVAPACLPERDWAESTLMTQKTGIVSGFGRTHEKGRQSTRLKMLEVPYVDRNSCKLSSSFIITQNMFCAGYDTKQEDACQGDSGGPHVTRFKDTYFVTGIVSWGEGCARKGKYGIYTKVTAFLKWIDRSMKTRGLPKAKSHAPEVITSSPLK

B1: BIIB-12-893 (antibody, V domains shown)
VH: QVQLVQSGAEVKKPGASVKVSCKASGYTFTSYYMVWVRQAPGQGLEWMGIINPSGGSTSYAQKFQGRVTMTRDTSTSTVYMELSSLRSEDTAVYYCARDPGRRQYSFYGMDVWGQGTTVTVSS
VL: DIQLTQSPSSVSASVGDRVTITCRASQGISSWLAWYQQKPGKAPKLLIYAASSLQSGVPSRFSGSGSGTDFTLTISSLQPEDFATYYCQQAAAFPFTFGGGTKVEIK
B2: BIIB-12-1314 (antibody, V domains shown)
VH: QVQLVESGGGVVQPGRSLRLSCAASGFTFSSYGMHWVRQAPGKGLEWVAVISYDGSNKYYADSVKGRFTISRDNSKNTLYLQMNSLRAEDTAVYYCAKGTRWAGNWGQGTLVTVSS
VL: B1 VL with L4M, A92N, A93F, F96I
B3: BIIB-12-896 (antibody, V domains shown)
VH: QVQLVQSGAEVKKPGASVKVSCKASGYTFTSYYMHWVRQAPGQGLEWMGIINPSGGSTSYAQKFQGRVTMTRDTSTSTVYMELSSLRSEDTAVYYCARGLGQQRRGFDIWGQGTLVTVSS
VL: B1 VL with L4M, A92N, A93S
B4: BIIB-12-908 (antibody, V domains shown)
VH: B2 VH with T100P, W102G, A103M, G104D, N105V, L111T
VL: B1 VL with A50G, A91G, A92S, A93S, F94L, F96I
B5: BIIB-12-1309 (antibody, V domains shown)
VH: QVQLVESGGGVVQPGRSLRLSCAASGFTFSSYGMHWVRQAPGKGLEWVAVISYDGSNKYYADSVKGRFTISRDNSKNTLYLQMNSLRAEDTAVYYCARGRYTSRYFQHWGQGTLVTVSS
VL: B1 VL with L4M, A92N, A93S, F94L, F96I
B6: BIIB-12-898 (antibody, V domains shown)
VH: QVQLVQSGAEVKKPGASVKVSCKASGYTFTSYYMHWVRQAPGQGLEWMGIINPSGGSTTYAQKFQGRVTMTRDTSTSTVYMELSSLRSEDTAVYYCARGDRMLRAFDPWGQGTLVTVSS
VL: B1 VL with S10T, V11L, G28A, A50D, Q55E, D70E, E81D, A91V, A92N, A93R
B7: BIIB-12-1307 (antibody, V domains shown)
VH: QVQLQESGPGLVKPSETLSLTCAVSGYSISSGYYWAWIRQPPGKGLEWIGSIYHSGSTYYNPSLKSRVTISVDTSKNQFSLKLSSVTAADTAVYYCARGPLPRSRGLAFDIWGQGTMVTVSS
VL: B1 VL with V11L, G28S, W32F, A34N, A91T, A92Y, A93S, F94T, F96L
B8: BIIB-12-930 (antibody, V domains shown)
VH: B3 VH with G99V, L100R, G101Q, Q102K, Q103A, R104T, R105L, G106L, D108Q, I109H
VL: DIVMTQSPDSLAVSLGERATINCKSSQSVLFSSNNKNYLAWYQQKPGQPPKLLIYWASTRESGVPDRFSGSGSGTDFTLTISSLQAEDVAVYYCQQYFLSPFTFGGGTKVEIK
B9: BIIB-12-1304 (antibody, V domains shown)
VH: QVQLVESGGGVVQPGRSLRLSCAASGFTFSSYGMHWVRQAPGKGLEWVAVISYDGSNKYYADSVKGRFTISRDNSKNTLYLQMNSLRAEDTAVYYCAKGPGSRRFDIWGQGTMVTVSS
VL: EIVMTQSPATLSVSPGERATLSCRASQSVSSNLAWYQQKPGQAPRLLIYGASTRATGIPARFSGSGSGTEFTLTISSLQSEDFAVYYCQQANVLPLTFGGGTKVEIK
B10: BIIB-12-1316 (antibody, V domains shown)
VH: B9 VH with G99S, P100G, G101Q, S102Y, R104A
VL: B1 VL with L4M, A91I, A92N, A93N, F96P
B11: BIIB-12-1329 (antibody, V domains shown)
VH: B5 VH with R100G, Y101A, T102G
VL: B9 VL with L11K, G50S, A91V, N92F, V93N, L94W, L96P, E105K
B12: BIIB-12-1302 (antibody, V domains shown)
VH: QVQLVQSGAEVKKPGASVKVSCKASGYTFTNYGISWVRQAPGQGLEWMGWISAYNGNTNYAQKLQGRVTMTTDTSTSTAYMELRSLRSDDTAVYYCARARSDWRAFDIWGQGTMVTVSS
VL: B9 VL with A91V, V93N
B13: BIIB-12-918 (antibody, V domains shown)
VH: B9 VH with G99S, P100L, S102G, R104S
VL: DIQMTQSPSSLSASVGDRVTITCRASQSISRYLNWYQQKPGKAPKLLIYAASSLQSGVPSRFSGSGSGTDFTLTISSLQPEDFATYYCQQIFSLPITFGGGTKVEIK
B14: BIIB-12-912 (antibody, V domains shown)
VH: B9 VH with G99S, P100G, S102R, R103Y, R104G, F105Y
VL: B9 VL with A91F, N92H, V93N, L94F, L96P
B15: BIIB-12-907 (antibody, V domains shown)
VH: QVQLQESGPGLVKPSETLSLTCAVSGYSISSGYYWAWIRQPPGKGLEWIGSIYHSGSTYYNPSLKSRVTISVDTSKNQFSLKLSSVTAADTAVYYCARESGMSGAAYWGQGTLVTVSS
VL: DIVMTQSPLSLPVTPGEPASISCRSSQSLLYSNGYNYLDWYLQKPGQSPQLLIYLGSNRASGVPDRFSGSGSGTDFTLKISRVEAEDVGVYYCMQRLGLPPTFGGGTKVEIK
B16: BIIB-12-919 (antibody, V domains shown)
VH: QVQLVQSGAEVKKPGASVKVSCKASGYTFTSYYMHWVRQAPGQGLEWMGVINPSGGSTSYAQKFQGRVTMTRDTSTSTVYMELSSLRSEDTAVYYCARGANIAVGRRYADYWGQGTLVTVSS
VL: DIQMTQSPSTLSASVGDRVTITCRASQSISSWLAWYQQKPGKAPKLLIYKASSLESGVPSRFSGSGSGTEFTLTISSLQPDDFATYYCQQVSSYPTFGGGTKVEIK
B17: BIIB-12-905 (antibody, V domains shown)
VH: B2 VH with T100G, R101T, W102Y, A103L, G104D, N105T
VL: EIVLTQSPGTLSLSPGERATLSCRASQSVRSSYLAWYQQKPGQAPRLLIYGASSRATGIPDRFSGSGSGTDFTLTISRLEPEDFAVYYCQQYGRFPPTFGGGTKVEIK
B18: BIIB-12-1326 (antibody, V domains shown)
VH: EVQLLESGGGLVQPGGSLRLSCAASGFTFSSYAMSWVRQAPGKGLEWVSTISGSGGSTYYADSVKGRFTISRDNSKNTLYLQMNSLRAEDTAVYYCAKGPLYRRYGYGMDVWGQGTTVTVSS
VL: B17 VL with Y92A, G93Y, R94S, F95S, P97L
B19: BIIB-12-906 (antibody, V domains shown)
VH: B2 VH with G99S, T100S, W102H, A103F, G104D, N105Y, Q108R
VL: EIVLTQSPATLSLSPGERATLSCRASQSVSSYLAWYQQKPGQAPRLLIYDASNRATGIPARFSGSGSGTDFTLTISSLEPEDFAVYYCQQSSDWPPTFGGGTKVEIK
B20: BIIB-12-897 (antibody, V domains shown)
VH: QLQLQESGPGLVKPSETLSLTCTVSGGSISSSSYYWGWIRQPPGKGLEWIGSIYYSGSTYYNPSLKSRVTISVDTSKNQFSLKLSSVTAADTAVYYCAREGRTYYGGWFDPWGQGTLVTVSS
VL: B17 VL with R30S, Y92D, R94N, F95Y, P97Y
B21: BIIB-12-894 (antibody, V domains shown)
VH: B20 VH with R102A, T103H, Y104S, Y105S, G106M, G107A, W108G, F109L, P111V, L117M
VL: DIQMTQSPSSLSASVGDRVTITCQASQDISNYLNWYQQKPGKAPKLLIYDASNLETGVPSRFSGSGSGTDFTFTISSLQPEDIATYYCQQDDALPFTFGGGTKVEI
B22: BIIB-12-1289 (antibody, V domains shown)
VH: QVQLVQSGAEVKKPGASVKVSCKASGYTFTSYYMHWVRQAPGQGLEWMGIINPGGGSTSYAQKFQGRVTMTRDTSTSTVYMELSSLRSEDTAVYYCARGPPRTYATGSHNWFDPWGQGTLVTVSS
VL: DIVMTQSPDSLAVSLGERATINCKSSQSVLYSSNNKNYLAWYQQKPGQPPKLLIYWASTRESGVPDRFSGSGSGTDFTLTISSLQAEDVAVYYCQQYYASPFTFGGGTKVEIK
B23: BIIB-12-922 (antibody, V domains shown)
VH: QVQLVQSGAEVKKPGASVKVSCKASGYTFTSYYMHWVRQAPGQGLEWMGIINPSGGSTSYAQKFQGRVTMTRDTSTSTVYMELSSLRSEDTAVYYCARRGRIAGMWGQGTTVTVSS
VL: not shown
B24: BIIB-12-937 (antibody, V domains shown)
VH: QVQLVQSGAEVKKPGASVKVSCKASGYTFTSYYMHWVRQAPGQGLEWMGIINPSGGSTSYAQKFQGRVTMTRDTSTSTVYMELSSLRSEDTAVYYCARPTRMLRSYGMDVWGQGTTVTVSS
VL: not shown
B25: BIIB-12-1333 (antibody, V domains shown)
VH: QVQLVQSGAEVKKPGASVKVSCKASGYTFTSYYMVWVRQAPGQGLEWMGIINPSGGSTSYAQKFQGRVTMTRDTSTSTVYMELSSLRSEDTAVYYCARVSRRDYPLAFDIWGQGTMVTVSS
VL: EIVMTQSPATLSVSPGERATLSCRASQSVSSNLAWYQQKPGQAPRLLIYGASTRATGIPARFSGSGSGTEFTLTISSLQSEDFAVYYCQQVNTWPTFGGGTKVEIK

Target: T1, FX zymogen
Test: BLI

Binder | Kd
B1 | 52.2 nM
B2 | 10.4 nM
B3 | 63.4 nM
B4 | 34 nM
B5 | 49.9 nM
B6 | 18.5 nM
B7 | 19.8 nM
B8 | 56 nM
B9 | 50.5 nM
B10 | 45 nM
B11 | 48.5 nM
B12 | 64.1 nM
B13 | 27.7 nM
B14 | 31.1 nM
B15 | 52 nM
B16 | 23.1 nM
B17 | 48.4 nM
B18 | 24.1 nM
B19 | 39.6 nM
B20 | 68 nM
B21 | 38 nM
B22 | 48 nM
B23 | 38.6 nM
B24 | 23.7 nM
B25 | 16 nM
